Results on 1 substance are retold here after paper PMC5844992.

Assay [1] deals with HIV-1 NL4-3 wild-type protease (PR) tagged with CFP or YFP (HIV-1 (NL4-3)). Nature of the assay: FRET or BRET; FRET-based HIV-1 expression assay; COS-7 cells cotransfected with CFP- and YFP-tagged protease clones, 72 h, no DRV; acceptor photobleaching, CFP^A/B ratio > 1 means dimerization; confocal microscope, room temperature.
For assay [2] the target is unchanged. The assay is described as follows: FRET or BRET; as a1, cells cultured with 10 nM DRV added with the transfection. On the technique in general: In BRET a luciferase serves as donor, and the signal depends on an acceptor being close.

“HIV-1 NL4-3 wild-type protease (PR) tagged with CFP or YFP (enzyme)”: the CFP^A/B ratio in assay [1] stood at 1.07; in assay [2], 1.04.
